The text below walks through data of IntAct's records for PubMed 21896273.

The labels stand for the following.
B1: Signal peptide peptidase-like 2A (Mus musculus), Q9JJF9 (parent)
chain: MGLLHSLHAPAAALLWSCLLGLAAAQEAILHASTNGVSSLSKDYCMYYNNNWTRLPSSLENATSLSLMNLTGTALCHLSDIPPDGIRNKAVVVHWGPCHFLEKARIAQEGGAAALLIANNSVLIPSSRNKSTFQNVTVLIAVITQKDFKDMKETLGDDITVKMYSPSWPNFDYTLVVIFVIAVFTVALGGYWSGLIELENMKSVEDAEDRETRKKKDDYLTFSPLTVVVFVVICCIMIVLLYFFYRWLVYVMIAIFCIASSMSLYNCLSALIHRMPCGQCTILCCGKNIKVSLIFLSGLCISVAVVWAVFRNEDRWAWILQDILGIAFCLNLIKTMKLPNFMSCVILLGLLLIYDVFFVFITPFITKNGESIMVELAAGPFENAEKLPVVIRVPKLMGYSVMSVCSVPVSVLGFGDIIVPGLLIAYCRRFDVQTGSSIYYISSTIAYAVGMIITFVVLMVMKTGQPALLYLVPCTLITVSVVAWSRKEMKKFWKGSSYQVMDHLDYSTNEENPVTTDEQIVQQ

The variants in the first experiment derive from B1. Particulars: with lamp2_human LAMP2, P13473.
lamp2_human LAMP2, P13473, sequence (P13473 whole entry): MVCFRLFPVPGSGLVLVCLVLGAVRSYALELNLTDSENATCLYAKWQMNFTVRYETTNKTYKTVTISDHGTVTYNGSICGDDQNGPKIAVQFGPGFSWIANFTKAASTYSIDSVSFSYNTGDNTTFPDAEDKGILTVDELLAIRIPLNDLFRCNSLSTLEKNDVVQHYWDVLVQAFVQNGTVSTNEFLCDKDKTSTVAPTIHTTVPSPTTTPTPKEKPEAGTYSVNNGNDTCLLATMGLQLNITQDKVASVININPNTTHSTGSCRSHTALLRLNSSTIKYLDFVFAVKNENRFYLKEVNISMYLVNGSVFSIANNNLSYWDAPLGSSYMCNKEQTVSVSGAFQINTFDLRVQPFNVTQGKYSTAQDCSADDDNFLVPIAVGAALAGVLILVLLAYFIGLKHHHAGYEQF
With Y498A, the “effect of a mutation on the interaction” value was “disrupting interaction”.

In another experiment the parent is B1. Particulars: with lamp2_human LAMP2, P13473. This is another data set of the same source.
Regarding Y506A, the “effect of a mutation on the interaction” value is given as “disrupting interaction”.
